Read-outs that look alike come from different tables or passages of the source.

The target in assay [1] is Bovine thrombin (bovine) (UniProt P00735).
The target is the same in assay [2]. This is another data set of the same source.

Substance “Suc 3,5-diI-Tyr Glu Pro Ile Pro Glu Glu Ala Cha D-Glu (ID#4) (peptide)” gave an IC50, thrombin induced fibrin clot inhibition assay (turbidity at 405 nM) with Bovine thrombin (bovine) [1] of less than 25 µM.

Regarding “Suc--Tyr--Glu--Pro--Ile--Pro--Glu--Glu--Cha--D--Glu (ID#21) (peptide)”, the IC50, thrombin induced fibrin clot inhibition assay (turbidity at 405 nM) with Bovine thrombin (bovine) [2] was less than 25 µM. “Suc--Tyr--Glu--Pro--Ile--Pro--Glu--Glu--Cha--Gln--NH2 (ID#11) (peptide)”: the IC50, thrombin induced fibrin clot inhibition assay (turbidity at 405 nM) with Bovine thrombin (bovine) [2] is less than 25 µM. Still for that read-out and setting: for “Suc--Tyr--Glu--Pro--Tiq--Glu--Glu--Ala--Cha--D--Glu (ID#9) (peptide)” the value was less than 25 µM.

The values above are taken from patent US5279812.
